The values below come from the supplement of paper PMC9112550, “Optimization of the antimicrobial peptide Bac7 by deep mutational scanning” (BMC Biology, 2022).
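Further: peptides expressed intracellularly from a pBAD plasmid library in pooled LB shake-flask culture, induced with 0.3% L-arabinose, DNA abundance read by NGS, three biological replicates, DESeq2 with apeglm shrinkage.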

The series concerns Escherichia coli TOP10. The series is described as follows: shrunken log2 fold change of peptide-encoding DNA abundance (4.5 h post-induction vs induction); higher = less antimicrobial activity (less host growth inhibition). Conditions: time post-induction: 4.5 h; library: site-saturation at positions 5, 18, 19, 20.
As for RRIRCRPPRLPRPRPRPTNYPRP, the “shrunken log2 fold change” value was found to be 0.263.
Next, RRIRIRPPRLPRPRPRPCSAPRP: -0.392; RRIRNRPPRLPRPRPRPHDPPRP: -0.202.
As to RRIRTRPPRLPRPRPRPLRVPRP, the “shrunken log2 fold change” value amounted to 0.767.
In the case of RRIRMRPPRLPRPRPRPEAVPRP, the “shrunken log2 fold change” value is 3.72.
In the case of RRIRFRPPRLPRPRPRPVKIPRP, the “shrunken log2 fold change” value is -0.0378.
As for RRIRFRPPRLPRPRPRPHECPRP, the “shrunken log2 fold change” value was 0.0366.
RRIRIRPPRLPRPRPRPFNFPRP: the “shrunken log2 fold change” value is -0.31.
For the sequence RRIRGRPPRLPRPRPRPAPSPRP, the “shrunken log2 fold change” value amounted to 0.806.
Take RRIRIRPPRLPRPRPRPTANPRP: the “shrunken log2 fold change” value is -0.149.
RRIRQRPPRLPRPRPRPRITPRP: the “shrunken log2 fold change” value is 1.06.
Turning to RRIRPRPPRLPRPRPRPDCIPRP, the “shrunken log2 fold change” value is -0.391.
For RRIRGRPPRLPRPRPRPYMGPRP, the “shrunken log2 fold change” value was -0.00228.
Regarding RRIRWRPPRLPRPRPRPLCDPRP, the “shrunken log2 fold change” value is -0.0525.
Next, RRIRDRPPRLPRPRPRPGDCPRP: 0.0646; RRIRYRPPRLPRPRPRPYWQPRP: -0.000687; RRIRVRPPRLPRPRPRPYWLPRP: -0.411.
In the case of RRIRHRPPRLPRPRPRPSVGPRP, the “shrunken log2 fold change” value is 0.319.
As for RRIRPRPPRLPRPRPRPARGPRP, the figure is 0.606.
As for RRIRCRPPRLPRPRPRPPDSPRP, the “shrunken log2 fold change” value was -0.0091.
As to RRIRNRPPRLPRPRPRPTYSPRP, the “shrunken log2 fold change” value was -0.226.
With RRIRIRPPRLPRPRPRPDCTPRP, the “shrunken log2 fold change” value is 0.0385.
RRIRHRPPRLPRPRPRPQYEPRP: the “shrunken log2 fold change” value is -0.0461.
As for RRIRARPPRLPRPRPRPWQHPRP, the figure is 0.0196.
Next, RRIRIRPPRLPRPRPRPFYSPRP: -0.476; RRIRWRPPRLPRPRPRPVISPRP: -0.0992.
Turning to RRIRYRPPRLPRPRPRPEIHPRP, the “shrunken log2 fold change” value was -0.224.
With RRIRIRPPRLPRPRPRPGCQPRP, the “shrunken log2 fold change” value was -0.0196.
With RRIRCRPPRLPRPRPRPNSFPRP, the “shrunken log2 fold change” value was -0.58.
For RRIRSRPPRLPRPRPRPEDFPRP, the “shrunken log2 fold change” value was -0.149.
For RRIRGRPPRLPRPRPRPTVAPRP, the “shrunken log2 fold change” value is 1.99.
For RRIRFRPPRLPRPRPRPATFPRP, the “shrunken log2 fold change” value was -0.207.
Next, RRIRDRPPRLPRPRPRPEIKPRP: 1.54; RRIRKRPPRLPRPRPRPEGIPRP: -0.0332; RRIRARPPRLPRPRPRPTDIPRP: 0.224.
For RRIRARPPRLPRPRPRPQGDPRP, the “shrunken log2 fold change” value was 0.207.
RRIRPRPPRLPRPRPRPKAFPRP: the “shrunken log2 fold change” value was -0.198.
Consider RRIRGRPPRLPRPRPRPHHMPRP, for which the “shrunken log2 fold change” value was -0.219.
Turning to RRIRARPPRLPRPRPRPWELPRP, the “shrunken log2 fold change” value stood at 0.0412.
Take RRIRYRPPRLPRPRPRPLNEPRP: the “shrunken log2 fold change” value was -0.0438.
With RRIRFRPPRLPRPRPRPSLCPRP, the “shrunken log2 fold change” value was -0.348.
In the case of RRIRERPPRLPRPRPRPGLLPRP, the “shrunken log2 fold change” value is -0.0986.
As to RRIRPRPPRLPRPRPRPIFPPRP, the “shrunken log2 fold change” value was determined as 0.0704.
Turning to RRIRPRPPRLPRPRPRPTLTPRP, the “shrunken log2 fold change” value was found to be 1.22.
Regarding RRIRNRPPRLPRPRPRPATHPRP, the “shrunken log2 fold change” value came out at 0.224.
Regarding RRIRPRPPRLPRPRPRPLCNPRP, the “shrunken log2 fold change” value is -0.05.
As for RRIRARPPRLPRPRPRPTIDPRP, the “shrunken log2 fold change” value was found to be 0.301.
On to RRIRFRPPRLPRPRPRPDMNPRP, for which the “shrunken log2 fold change” value is -0.407.
Take RRIRCRPPRLPRPRPRPWQHPRP: the “shrunken log2 fold change” value is -0.256.
As to RRIRGRPPRLPRPRPRPFNKPRP, the “shrunken log2 fold change” value is -0.158.
As for RRIRGRPPRLPRPRPRPANCPRP, the figure is 0.147.
For RRIRRRPPRLPRPRPRPQIRPRP, the “shrunken log2 fold change” value is 0.178.
Regarding RRIRDRPPRLPRPRPRPWGSPRP, the “shrunken log2 fold change” value was -0.0321.
With RRIRWRPPRLPRPRPRPKWVPRP, the “shrunken log2 fold change” value was -0.00843.
With RRIRRRPPRLPRPRPRPLIGPRP, the “shrunken log2 fold change” value was -0.0159.
As for RRIRCRPPRLPRPRPRPPNQPRP, the figure is 0.107; as for RRIRYRPPRLPRPRPRPPAKPRP, 0.441.
Consider RRIRYRPPRLPRPRPRPWIPPRP, for which the “shrunken log2 fold change” value is -0.0119.
As to RRIRPRPPRLPRPRPRPIIFPRP, the “shrunken log2 fold change” value was -0.0799.
On to RRIRIRPPRLPRPRPRPMKAPRP, for which the “shrunken log2 fold change” value is -1.03.
RRIRERPPRLPRPRPRPWMKPRP: the “shrunken log2 fold change” value is -0.353.
With RRIRYRPPRLPRPRPRPLHSPRP, the “shrunken log2 fold change” value is -0.803.
Consider RRIRERPPRLPRPRPRPKEMPRP, for which the “shrunken log2 fold change” value was -0.192.
Turning to RRIRNRPPRLPRPRPRPIQTPRP, the “shrunken log2 fold change” value is -0.0112.
With RRIRSRPPRLPRPRPRPWHSPRP, the “shrunken log2 fold change” value is -0.0018.
Next, RRIRWRPPRLPRPRPRPRYYPRP: -0.0581; RRIRHRPPRLPRPRPRPYCMPRP: -1.05.
On to RRIRNRPPRLPRPRPRPKRRPRP, for which the “shrunken log2 fold change” value came out at 0.00183.
For RRIRNRPPRLPRPRPRPSPTPRP, the “shrunken log2 fold change” value stood at 0.156.
As for RRIRDRPPRLPRPRPRPEKVPRP, the figure is -0.00893.
In the case of RRIRPRPPRLPRPRPRPECAPRP, the “shrunken log2 fold change” value is 0.698.
RRIRCRPPRLPRPRPRPGKIPRP: the “shrunken log2 fold change” value is -0.399.
Next, RRIRIRPPRLPRPRPRPICPPRP: 0.0188; RRIRSRPPRLPRPRPRPEQEPRP: 0.0257.
Next, RRIRGRPPRLPRPRPRPIRSPRP: -0.0333.
For the sequence RRIRSRPPRLPRPRPRPEPLPRP, the “shrunken log2 fold change” value amounted to 0.0528.
Take RRIRMRPPRLPRPRPRPNWQPRP: the “shrunken log2 fold change” value came out at 0.00599.
As for RRIRPRPPRLPRPRPRPRAEPRP, the figure is 0.526; as for RRIRWRPPRLPRPRPRPDKGPRP, 0.0389; as for RRIRNRPPRLPRPRPRPMGIPRP, -0.454.
On to RRIRARPPRLPRPRPRPMNAPRP, for which the “shrunken log2 fold change” value was 0.376.
Next, RRIRQRPPRLPRPRPRPMAWPRP: -0.128; RRIRRRPPRLPRPRPRPSTTPRP: 0.00373.
Take RRIRVRPPRLPRPRPRPNFKPRP: the “shrunken log2 fold change” value is -0.0173.
On to RRIRNRPPRLPRPRPRPGYAPRP, for which the “shrunken log2 fold change” value was -0.0974.
For the sequence RRIRERPPRLPRPRPRPYNQPRP, the “shrunken log2 fold change” value was -0.0858.
On to RRIRERPPRLPRPRPRPFLWPRP, for which the “shrunken log2 fold change” value was found to be 0.155.
As for RRIRERPPRLPRPRPRPIDIPRP, the “shrunken log2 fold change” value is -0.01.
For RRIRVRPPRLPRPRPRPDLRPRP, the “shrunken log2 fold change” value was -0.0613.
Turning to RRIRVRPPRLPRPRPRPLKGPRP, the “shrunken log2 fold change” value was -0.211.
In the case of RRIRARPPRLPRPRPRPEQLPRP, the “shrunken log2 fold change” value came to 1.47.
On to RRIRCRPPRLPRPRPRPPCPPRP, for which the “shrunken log2 fold change” value came out at 0.487.
With RRIRIRPPRLPRPRPRPAVFPRP, the “shrunken log2 fold change” value was 0.103.
As for RRIRDRPPRLPRPRPRPNHVPRP, the figure is -0.242.
As for RRIRARPPRLPRPRPRPLHMPRP, the “shrunken log2 fold change” value was determined as 1.15.
Regarding RRIRWRPPRLPRPRPRPMWLPRP, the “shrunken log2 fold change” value was determined as 0.244.
Regarding RRIRPRPPRLPRPRPRPMNYPRP, the “shrunken log2 fold change” value is -0.736.
Consider RRIRHRPPRLPRPRPRPVMNPRP, for which the “shrunken log2 fold change” value is -0.0175.
Turning to RRIRQRPPRLPRPRPRPLDHPRP, the “shrunken log2 fold change” value is -0.198.
Consider RRIRRRPPRLPRPRPRPCHFPRP, for which the “shrunken log2 fold change” value was -0.181.
Regarding RRIRRRPPRLPRPRPRPYPKPRP, the “shrunken log2 fold change” value was -0.0202.
With RRIRERPPRLPRPRPRPQKNPRP, the “shrunken log2 fold change” value is -0.49.
Turning to RRIRWRPPRLPRPRPRPKAWPRP, the “shrunken log2 fold change” value came to 0.743.
Take RRIRFRPPRLPRPRPRPSKQPRP: the “shrunken log2 fold change” value was -0.101.
As for RRIRKRPPRLPRPRPRPLNLPRP, the figure is -0.123; as for RRIRLRPPRLPRPRPRPAFGPRP, 0.359; as for RRIRGRPPRLPRPRPRPGTLPRP, 0.351.
Consider RRIRARPPRLPRPRPRPILGPRP, for which the “shrunken log2 fold change” value came to 0.0597.
As for RRIRSRPPRLPRPRPRPCLFPRP, the figure is -0.193; as for RRIRVRPPRLPRPRPRPRNIPRP, -0.0258; as for RRIRCRPPRLPRPRPRPLHRPRP, 0.06.
With RRIRMRPPRLPRPRPRPWHHPRP, the “shrunken log2 fold change” value was -0.0514.
With RRIRTRPPRLPRPRPRPHYCPRP, the “shrunken log2 fold change” value was -0.418.
As to RRIRPRPPRLPRPRPRPGINPRP, the “shrunken log2 fold change” value was -0.178.
In the case of RRIRFRPPRLPRPRPRPDTWPRP, the “shrunken log2 fold change” value was found to be 0.0899.
As to RRIRRRPPRLPRPRPRPLTYPRP, the “shrunken log2 fold change” value is -0.204.
Next, RRIRYRPPRLPRPRPRPLCEPRP: -0.238; RRIRWRPPRLPRPRPRPMYRPRP: -0.233.
For the sequence RRIRHRPPRLPRPRPRPHNKPRP, the “shrunken log2 fold change” value was -0.866.
With RRIRGRPPRLPRPRPRPMNIPRP, the “shrunken log2 fold change” value is 0.127.
Next, RRIRCRPPRLPRPRPRPKDYPRP: -0.644; RRIRVRPPRLPRPRPRPYMGPRP: -0.895.
Turning to RRIRLRPPRLPRPRPRPFNVPRP, the “shrunken log2 fold change” value was -0.485.
Consider RRIRNRPPRLPRPRPRPNPIPRP, for which the “shrunken log2 fold change” value is 0.0101.
For RRIRTRPPRLPRPRPRPWNDPRP, the “shrunken log2 fold change” value is -0.271.
